Tests used:
[1] = target: K104C IN 1–105 (Moloney murine leukemia virus); assay: SEC; Superdex S-200 of the BMOE-crosslinked reaction mixture of K104C IN 1–105; data not shown
[2] = target: K104C IN 1–105 (Moloney murine leukemia virus); assay: cross-linking; 50 μM IN 1–105 K104C with 1 mM BMOE (8 Å) or BM(PEG)2 (14.7 Å), 50 mM Tris–HCl pH 7.0, 10 μM ZnSO4, on ice 60 min, quenched with 10 mM DTT; SDS-PAGE
[3] = target: Wild type IN 1–105, the isolated N-terminal domain (NTD) of Moloney murine leukemia virus integrase (Moloney murine leukemia virus) (UniProt P03355); assay: SEC; Superdex S-200, nondenaturing, 10 mM Tris pH 7.5, 0.5 M NaCl, 1 mM DTT, 5% glycerol; BS3-crosslinked and unmodified IN 1–105 compared
[4] = target: Wild type IN 1–105, the isolated N-terminal domain (NTD) of Moloney murine leukemia virus integrase (Moloney murine leukemia virus) (UniProt P03355); assay: cross-linking; 56 μM IN 1–105 with 100 μM BS3 (0 to 300 μM tested), 50 mM Hepes pH 7.8, 25°C, 35 min, stopped with 50 mM lysine pH 8.0; SDS-PAGE; monomer and dimer bands digested with trypsin or chymotrypsin and read by LC-MS/MS or MALDI-TOF/TOF

| Substance | stoichiometry N [1] | crosslinking extent with BM(PEG)2 [2] | crosslinking extent with BMOE [2] | stoichiometry N [2] | percent eluting at the position of the dimer [3] | stoichiometry N [3] | percent of the protein crosslinked [4] | stoichiometry N [4] |
| --- | --- | --- | --- | --- | --- | --- | --- | --- |
| K104C IN 1–105 (domain or fragment) | 2 | 70% | 65% | 2 |  |  |  |  |
| Wild type IN 1–105, the isolated N-terminal domain (NTD) of Moloney murine leukemia virus integrase (from UniProt P03355 2-106) (domain or fragment) |  |  |  |  | 95% | 2 | 50% | 2 |

Reference: paper PMC3750625
